From PMC10543311

What was measured:
Details in all cases: remark: other sources report otherwise
[1] = molecular target: T1, SNAP-tagged FUS (Fused in sarcoma), P35637; test: dynamic light scattering (DLS); derived count rate and size distributions in sub-saturated solutions; 20 mM Tris.Glu pH 7.4, 100 mM KGlu (with residual KCl from the stock), 25 °C; self-association into clusters
T1 chain: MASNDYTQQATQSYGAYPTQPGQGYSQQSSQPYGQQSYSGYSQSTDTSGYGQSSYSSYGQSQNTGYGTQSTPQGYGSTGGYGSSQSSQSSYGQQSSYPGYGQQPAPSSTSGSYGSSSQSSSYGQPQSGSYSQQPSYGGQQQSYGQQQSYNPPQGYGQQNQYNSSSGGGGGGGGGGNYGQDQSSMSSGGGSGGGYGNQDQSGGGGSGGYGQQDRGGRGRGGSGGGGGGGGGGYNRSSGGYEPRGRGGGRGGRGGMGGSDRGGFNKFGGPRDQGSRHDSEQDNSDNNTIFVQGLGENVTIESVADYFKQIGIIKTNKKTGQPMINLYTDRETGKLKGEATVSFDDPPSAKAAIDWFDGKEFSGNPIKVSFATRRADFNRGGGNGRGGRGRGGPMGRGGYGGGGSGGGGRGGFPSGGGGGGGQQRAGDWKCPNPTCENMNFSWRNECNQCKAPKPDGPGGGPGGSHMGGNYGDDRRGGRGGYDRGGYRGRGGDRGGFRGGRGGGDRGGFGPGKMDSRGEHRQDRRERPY

[2] = molecular target: T1, SNAP-tagged FUS (Fused in sarcoma), …; test: nanoparticle tracking analysis (NTA); mesoscale clusters in sub-saturated solutions; 100 mM KGlu and 100 mM KCl, 25 °C, recorded 6 minutes after sample preparation
[3] = molecular target: T2, untagged FUS (Fused in sarcoma), P35637; test: as above
T2 chain: T1 chain

B1: SNAP-tagged FUS (Fused in sarcoma), P35637 1-526 (natural protein)
chain: T1 chain
modifications: here or on the partner: Alexa 488 (AF488) or Alexa 647 (AF647) label in the smFRET and FCS experiments; unlabelled elsewhere; Alexa 488 (AF488) or Alexa 647 (AF647) label in the smFRET and FCS experiments; unlabelled elsewhere
In the case of B1, the derived count rate in 100 mM KGlu relative to 100 mM KCl [1] is reported as under 3 fold and the abundance of mesoscale clusters in 100 mM KGlu relative to 100 mM KCl [2] is reported as 4 fold.

B2: untagged FUS (Fused in sarcoma), P35637 1-526 (natural protein)
chain: T1 chain
B2 showed an abundance of mesoscale clusters in 100 mM KGlu relative to 100 mM KCl [3] of 4 fold.
